We go through 2 molecules from US20250320309A1 (SHENGHE CHINA BIOPHARMACEUTICAL, published 2025).

The target of the assay is T1, human CD24 (human, UniProt P25063 27-59).
T1 chain (looked up): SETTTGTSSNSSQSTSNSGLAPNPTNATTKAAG
In words: cell-based or functional assay.

B1: 1-C2-IgG1 (bispecific antibody)
heavy: not shown
light: DIQMTQSPSTLSASVGDRVTITCSASSSVSSMHWYQQKPGKAPKLLIYSTSNLASGVPSRFSGSGSGTEYTLTISSLQPDDFATYYCHHWTSYMYTFGGGTKVEIKRTVAAPSVFIFPPSDEQLKSGTASVVCLLNNFYPREAKVQWKVDNALQSGNSQESVTEQDSKDSTYSLSSTLTLSKADYEKHKVYACEVTHQGLSSPVTKSFNRGEC
On to B1, for which the “ADCP: phagocytosis of CD24-SKOV3 cells by macrophages, EC50” value was found to be 13 pM and the “ADCP: phagocytosis of MCF-7 cells by macrophages, EC50” value came out at 4 pM.

B2: 1-D2-IgG4 (bispecific antibody)
heavy: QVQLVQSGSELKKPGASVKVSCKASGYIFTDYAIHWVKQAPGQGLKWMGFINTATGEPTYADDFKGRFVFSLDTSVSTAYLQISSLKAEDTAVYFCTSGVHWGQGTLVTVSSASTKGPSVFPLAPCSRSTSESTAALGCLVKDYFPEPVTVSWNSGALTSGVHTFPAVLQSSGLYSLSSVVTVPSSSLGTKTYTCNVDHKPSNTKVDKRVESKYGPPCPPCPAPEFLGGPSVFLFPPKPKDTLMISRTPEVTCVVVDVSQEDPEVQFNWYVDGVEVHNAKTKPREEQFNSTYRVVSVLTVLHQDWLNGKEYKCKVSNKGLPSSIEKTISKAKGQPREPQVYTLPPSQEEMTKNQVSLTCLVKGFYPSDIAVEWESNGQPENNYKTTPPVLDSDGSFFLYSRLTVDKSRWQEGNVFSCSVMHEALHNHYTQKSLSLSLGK
light: DIQMTQSPSTLSASVGDRVTITCSASSSVSSMHWYQQKPGKAPKLLIYSTSNLASGVPSRFSGSGSGTEYTLTISSLQPDDFATYYCHHWTSYMYTFGGGTKVEIKRTVAAPSVFIFPPSDEQLKSGTASVVCLLNNFYPREAKVQWKVDNALQSGNSQESVTEQDSKDSTYSLSSTLTLSKADYEKHKVYACEVTHQGLSSPVTKSFNRGECGGGGSGGGGSQVQLQESGPGLVKPSETLSLTCTVSGSSLTSYGVHWVRQPPGKCLEGLGVIWPGGSTNYNSALMSRVTISKDNSKSQVSLKMSSLTAADTAVYYCARVTGTWYFDVWGQGTTVTVSSGGGGSGGGGSGGGGSDIQMTQSPSSLSASLGDRVTISCSASQGISNYLNWYQQKPDGTVKLLIYYTSTLHSGVPSRFSGSGSGTDYTLTISSLQPEDIATYYCQQYSKLPWTFGCGTKLEIK
Turning to B2, the “ADCP: phagocytosis of CD24-SKOV3 cells by macrophages, EC50” value is 4 pM and the “ADCP: phagocytosis of MCF-7 cells by macrophages, EC50” value came out at 2 pM.
